{"source": "paper PMC9693254", "proteins": {"B1": {"name": "cocoonase (CCN), mature form (Bombyx mori; K85G) (protein)", "chain": "IVGGEEISINKVPYQAYLLLQKDNEYFQCGGSIISKRHILTAAHCIEGISGVTVRIGSSNSNKGGTVYTAKSKVAHPKYNSKTKNNDFAIVTVNKDMAIDGKTTKIITLAKEGSSVPDKTKLLVSGWGATSEGGSSSTTLRAVHVQAHSDDECKKYFRSLTSNMFCAGPPEGGKDSCQGDSGGPAVKGNVQLGVVSFGVGCARKNNPGIYAKVSAAAKWIKST"}, "B2": {"name": "cocoonase (CCN), mature form (Bombyx mori; K153G/K155A/K85G) (protein)", "chain": "B1 chain with K119G, K121A"}}, "substrate": "CCOC(=O)[C@H](CCCNC(=N)N)NC(=O)c1ccccc1", "assay": "purified protein", "conditions": "50 mM Tris/HCl pH 8.0, 25 mM NaCl, 1 mM EDTA, 25 °C, substrate 25–100 μM, apparent Km, numbering of proCCN", "key": {"[1]": {"conditions": "CCN' auto-processed from proCCN'"}, "[2]": {"conditions": "mature CCN' prepared from [K8D,K63G,K131G,K133A]-proCCN (K8D lies in the removed propeptide,"}}, "note": "Where a chain is given by its changes, count along the chain named. In names and notes the source's numbering stands.", "data": [{"protein": "B1", "values": [{"measurement": "Km", "result": 400, "unit": "µM"}, {"measurement": "Vmax", "result": 0.006, "unit": "µM/min"}]}, {"protein": "B2", "values": [{"measurement": "Km", "setting": "[1]", "result": 370, "unit": "µM"}, {"measurement": "Vmax", "setting": "[1]", "result": 0.0084, "unit": "µM/min"}, {"measurement": "Km", "setting": "[2]", "result": 920, "unit": "µM"}, {"measurement": "Vmax", "setting": "[2]", "result": 0.0276, "unit": "µM/min"}]}]}
